The values below are quoted from earlier work in article PMC8810291.

The data set has as its target FNIP1 (Homo sapiens) (UniProt Q8TF40).

pKd: −log10 of the molar value.

FEM1B, sequence (Q9UK73 whole entry): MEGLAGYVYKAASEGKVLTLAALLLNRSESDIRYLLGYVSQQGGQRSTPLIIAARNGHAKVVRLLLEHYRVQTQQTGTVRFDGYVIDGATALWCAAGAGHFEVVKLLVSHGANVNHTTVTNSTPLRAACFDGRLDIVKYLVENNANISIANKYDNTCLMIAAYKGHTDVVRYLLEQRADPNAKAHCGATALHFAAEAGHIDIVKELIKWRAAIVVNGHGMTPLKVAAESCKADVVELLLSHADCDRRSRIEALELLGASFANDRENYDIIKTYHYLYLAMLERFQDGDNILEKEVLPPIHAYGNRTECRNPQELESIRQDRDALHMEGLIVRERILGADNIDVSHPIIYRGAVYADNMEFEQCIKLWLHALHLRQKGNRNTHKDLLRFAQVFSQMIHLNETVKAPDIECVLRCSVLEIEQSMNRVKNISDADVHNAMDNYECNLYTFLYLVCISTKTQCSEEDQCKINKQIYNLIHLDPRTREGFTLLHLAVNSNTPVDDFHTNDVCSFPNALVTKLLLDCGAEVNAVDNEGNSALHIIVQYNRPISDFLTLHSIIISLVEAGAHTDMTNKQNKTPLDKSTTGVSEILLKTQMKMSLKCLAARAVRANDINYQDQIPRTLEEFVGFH
FNIP1 (Homo sapiens), sequence (Q8TF40 whole entry): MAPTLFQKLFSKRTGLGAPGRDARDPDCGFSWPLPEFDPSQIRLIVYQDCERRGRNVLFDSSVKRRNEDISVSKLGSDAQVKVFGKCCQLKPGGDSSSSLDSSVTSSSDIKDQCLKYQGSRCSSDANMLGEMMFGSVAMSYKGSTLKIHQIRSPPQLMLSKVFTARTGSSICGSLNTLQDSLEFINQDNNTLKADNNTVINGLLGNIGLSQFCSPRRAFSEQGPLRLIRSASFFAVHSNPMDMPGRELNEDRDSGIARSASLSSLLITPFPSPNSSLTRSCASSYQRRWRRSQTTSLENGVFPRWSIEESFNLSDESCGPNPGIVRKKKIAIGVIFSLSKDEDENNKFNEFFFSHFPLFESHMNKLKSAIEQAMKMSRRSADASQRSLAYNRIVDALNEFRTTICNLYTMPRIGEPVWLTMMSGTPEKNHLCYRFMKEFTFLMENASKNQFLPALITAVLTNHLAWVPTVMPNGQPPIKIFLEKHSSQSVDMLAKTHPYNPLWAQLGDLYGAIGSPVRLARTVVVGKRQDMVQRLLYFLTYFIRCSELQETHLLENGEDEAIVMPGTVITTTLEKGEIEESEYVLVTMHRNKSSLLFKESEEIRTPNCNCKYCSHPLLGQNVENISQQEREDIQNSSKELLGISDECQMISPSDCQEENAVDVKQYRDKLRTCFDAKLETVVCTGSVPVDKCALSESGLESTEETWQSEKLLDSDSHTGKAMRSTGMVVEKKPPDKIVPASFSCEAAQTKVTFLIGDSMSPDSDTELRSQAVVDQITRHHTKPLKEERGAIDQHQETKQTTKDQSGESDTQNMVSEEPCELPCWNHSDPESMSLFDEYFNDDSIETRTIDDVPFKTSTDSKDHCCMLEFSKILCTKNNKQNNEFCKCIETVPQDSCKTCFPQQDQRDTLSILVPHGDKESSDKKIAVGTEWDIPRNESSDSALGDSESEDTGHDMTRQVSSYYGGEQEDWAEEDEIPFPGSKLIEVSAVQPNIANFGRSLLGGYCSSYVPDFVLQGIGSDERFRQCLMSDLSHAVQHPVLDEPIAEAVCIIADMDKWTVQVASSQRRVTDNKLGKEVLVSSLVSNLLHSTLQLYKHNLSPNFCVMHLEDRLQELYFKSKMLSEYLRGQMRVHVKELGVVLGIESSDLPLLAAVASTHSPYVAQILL

On to FEM1B (from UniProt Q9UK73), for which the pKd is 7.70.

By pKd is commonly meant the negative decadic logarithm of the Kd, by convention in mol/L.
